Results taken from patent publication US12366576B2, “Compositions, assays, and methods for direct modulation of fatty acid metabolism” (Dana-Farber Cancer Institute, Inc., priority 2016, dated 2025).
Bridge positions count the residues as written; N and C are the ends. Square brackets hold non-standard residues; d marks the D form. Ends that are not written are not given here. Peptide text beside a SMILES is read from it. S5 = C=CCCC[C@](C)(N)C(=O)O

Key:
native VLCAD = target: T1, native VLCAD (Mus musculus, UniProt P50544); test: Biotinylated SAHB pulldown from MEF lysates, anti-VLCAD Western analysis; type: binding; conditions: for best overall binders to VLCAD based on pull-downs and ITC: summary of binding properties; for summary of binding properties: binding to VLCAD: pull-downs and ITC
T1 construct: As for native VLCAD from MEF lysates; endogenous in cells; host or cells: SV-40-transformed wild-type mouse embryonic fibroblasts (lysate)
T1 sequence (P50544 42-656): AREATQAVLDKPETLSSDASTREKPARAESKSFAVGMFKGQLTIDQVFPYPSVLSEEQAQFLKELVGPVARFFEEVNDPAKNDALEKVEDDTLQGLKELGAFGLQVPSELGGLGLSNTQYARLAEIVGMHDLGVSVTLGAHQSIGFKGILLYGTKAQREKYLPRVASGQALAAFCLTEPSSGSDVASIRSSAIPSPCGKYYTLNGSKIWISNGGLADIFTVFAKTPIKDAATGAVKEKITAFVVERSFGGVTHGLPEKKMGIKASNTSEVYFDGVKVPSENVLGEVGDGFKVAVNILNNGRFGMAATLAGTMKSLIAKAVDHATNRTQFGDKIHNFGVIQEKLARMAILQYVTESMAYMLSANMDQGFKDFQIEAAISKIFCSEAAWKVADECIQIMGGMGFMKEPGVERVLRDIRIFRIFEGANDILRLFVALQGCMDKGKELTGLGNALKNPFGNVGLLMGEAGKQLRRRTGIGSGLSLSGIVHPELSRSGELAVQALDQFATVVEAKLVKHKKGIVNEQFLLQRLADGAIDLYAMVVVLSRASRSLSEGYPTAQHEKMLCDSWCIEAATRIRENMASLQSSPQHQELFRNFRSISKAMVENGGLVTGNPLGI
Description: To validate the MS result, the pulldowns were repeated and eluates run on a gel for anti-VLCAD Western blot analysis. […] All peptides faithfully recapitulated native BH3-binding propensities for endogenous MCL-1 protein (FIG. 8). The eluates were then probed for the other members of the acyl-CoA dehydrogenase family that manifest shorter fatty acid substrate specificities. MCL-1 SAHBD was able to pull down VLCAD, but not MCAD or SCAD (FIG. 9). Because the traditional MCL-1 staple location differs from that of the BIM, BID, and BAD SAHBs, it was important to confirm that the observed VLCAD binding specificity was due to BH3 sequence selectivity, not staple position. A BIM SAHB with the traditional MCL-1 staple (BIM SAHBF), and a MCL-1 stapled peptide with the traditional BIM staple (MCL-1 SAHBA), were generated. […] To confirm that the selective interaction between MCL-1 SAHBD and VLCAD is direct, recombinant VLCAD was generated and purified by size exclusion chromatography (FIGS. 11 and 12).
The binding determinants for the MCL-1 BH3/VLCAD interaction were investigated by generating a series of biotinylated MCL-1 SAHBD alanine point mutants (FIG. 18A) and performing streptavidin pull-downs from MEF lysates, followed by VLCAD and MCL-1 western analysis of the resulting eluates. […] Native alanines and residues not mutated are colored white. The dotted semicircles highlight the distinctive MCL-1 BH3 binding interfaces for VLCAD versus MCL-1 engagement, as defined by the differential sensitivities to alanine mutagenesis.
Wild-type MEFs were trypsinized, washed once with cold PBS, and lysed on ice with NP-40 lysis buffer (50 mM Tris, pH 7.4, 150 mM NaCl, 0.5% (v/v) NP-40, complete protease inhibitor pellet (Roche)) using 1 ml of lysis buffer for every 10 million cells lysed. Cellular debris was pelleted at 14,000 g for 10 min at 4° C., and the supernatant was quantified using the BCA Protein Assay Kit (Thermo Fisher Scientific). 2 mg of lysate per pulldown were then exposed to 50 μL of pre-equilibrated High Capacity Streptavidin Agarose beads (Thermo Fisher Scientific). The pre-cleared lysates were then incubated with 15 nmol biotinylated SAHBs (or vehicle, 1.5% (v/v) DMSO) overnight at 4° C., followed by addition of 50 μL of pre-equilibrated High Capacity Streptavidin Agarose beads for 2 hours at 4° C. The beads were then pelleted and washed with NP-40 lysis buffer three times before eluting the protein sample from the beads by heating at 70° C. for 10 min in SDS loading buffer. Samples were then subjected to electrophoresis and either Western analysis or Coomassie stain (SimplyBlue Safe Stain, Thermo Fisher Scientific). The antibodies used for Western analysis were the following: MCL-1 (Rockland 600-401-394; 1:1000 in 3% BSA), VLCAD (Thermo Fisher Scientific PA5-29959; 1:1000 in 1% milk+0.1% Tween-20), MCAD (Thermo Fisher Scientific PA5-27201; 1:1000 in 3% BSA), and SCAD (Abcam ab154823; 1:1000 in 3% BSA). Coomassie stained gels were then processed for proteomics analysis (see below). Biotinylated SAHB pulldowns of recombinant protein were performed as above incubating 5 nmol of SAHB with 10 pmol of rVLCAD in 500 μL total volume. Densitometry analyses were performed using ImageJ software.

VLCAD = target: T2, VLCAD (Mus musculus, UniProt P50544); test: Biotinylated SAHB streptavidin pulldown from MEF lysates with MS-based protein identification; type: binding; conditions: wild-type MEF lysates; three biological replicates; thresholds fold change >8 and p<0.005 versus vehicle
T2 construct: As for native VLCAD from MEF lysates; endogenous in cells; host or cells: SV-40-transformed wild-type mouse embryonic fibroblasts (lysate)
T2 sequence (P50544 42-656): T1 sequence (P50544 42-656)
Description: An exploratory proteomics analysis was conducted to identify proteins that interact with the MCL-1 BH3 domain helix. An extensive library of MCL-1 stapled BH3 peptides (FIG. 2) was generated to both identify novel protein interactors by mass spectrometry and then deploy the stapled peptide constructs as novel probes to dissect and pharmacologically modulate the identified protein interactors and associated signaling pathways. As an example, an N-terminally biotinylated stapled peptide designed based on the sequence of MCL-1's BH3 domain (Btn-MCL-1 SAHBD), or vehicle, was incubated with wild-type mouse embryonic fibroblast (MEF) lysates, followed by high stringency streptavidin capture. To validate the proteomics workflow and ensure that Btn-MCL-1 SAHBD could, in fact, engage protein interactors in a lysate, eluates were first run on a gel for anti-MCL-1 Western analysis. […]
Wild-type MEFs were trypsinized, washed once with cold PBS, and lysed on ice with NP-40 lysis buffer (50 mM Tris, pH 7.4, 150 mM NaCl, 0.5% (v/v) NP-40, complete protease inhibitor pellet (Roche)) using 1 ml of lysis buffer for every 10 million cells lysed. Cellular debris was pelleted at 14,000 g for 10 min at 4° C., and the supernatant was quantified using the BCA Protein Assay Kit (Thermo Fisher Scientific). […]

Row | Molecule | summary of binding properties: binding to VLCAD (native VLCAD) | further results
1 | CC(=O)N[C@@H](CCCNC(=N)N)C(=O)N[C@@H](CCCCN)C(=O)N[C@@H](C)C(=O)N[C@@H](CC(C)C)C(=O)N[C@@H](CCC(=O)O)C(=O)N[C@H](C(=O)N[C@@H](CC(C)C)C(=O)N[C@@H](CCCNC(=N)N)C(=O)N[C@@H](CCCNC(=N)N)C(=O)N[C@H](C(=O)NCC(=O)N[C@@H](CC(=O)O)C(=O)NCC(=O)N[C@@H](C)C(=O)N[C@@]1(C)CCCC=CCCC[C@@](C)(C(=O)N[C@H](C(=O)N[C@@H](C)C(=O)N[C@@H](Cc2ccccc2)C(N)=O)[C@@H](C)O)NC(=O)[C@H](Cc2c[nH]cn2)NC(=O)[C@H](CC(N)=O)NC(=O)[C@H](CCCNC(=N)N)NC1=O)C(C)C)[C@@H](C)O [V220A] (Ac-RKALETLRRVGDGA[S5]RNH[S5]TAF-NH2; staple 15-19; N-terminus and C-terminus assumed) | Binds | best overall binders to VLCAD based on pull-downs and ITC (native VLCAD): Best overall binders to VLCAD
2 | D218A: biotinylated MCL-1 SAHBD alanine point mutant D218A (RKALETLRRVGAGV[S5]RNH[S5]TAF; staple 15-19; also: biotinylated, place not given here) | Binds | best overall binders to VLCAD based on pull-downs and ITC (native VLCAD): Best overall binders to VLCAD
3 | F228A: biotinylated MCL-1 SAHBD alanine point mutant F228A (RKALETLRRVGDGV[S5]RNH[S5]TAA; staple 15-19; also: biotinylated, place not given here) | Does not bind | 
4 | L213A: biotinylated MCL-1 SAHBD alanine point mutant L213A (RKALETARRVGDGV[S5]RNH[S5]TAF; staple 15-19; also: biotinylated, place not given here) | Does not bind | effect of alanine mutation on biotinylated MCL-1 SAHBD interaction with VLCAD (native VLCAD; pull-downs from MEF lysates): disrupted
5 | MCL-1 SAHBD: hydrocarbon-stapled peptide mimicking the MCL-1 BH3 domain (Stabilized Alpha-Helix of BCL-2 Domain), SEQ ID NO:19 (RKALETLRRVGDGV[S5]RNH[S5]TAF; staple 15-19) | Binds | VLCAD identified by MS in pulldown eluates (VLCAD): repeatedly identified as a high stringency interactor; pull down of VLCAD from cellular lysates (native VLCAD; wild-type MEF lysates, 15 nmol biotinylated SAHB): VLCAD was detected
6 | R207A: biotinylated MCL-1 SAHBD alanine point mutant R207A (AKALETLRRVGDGV[S5]RNH[S5]TAF; staple 15-19; also: biotinylated, place not given here) | Does not bind | 
7 | R214A: biotinylated MCL-1 SAHBD alanine point mutant R214A (RKALETLARVGDGV[S5]RNH[S5]TAF; staple 15-19; also: biotinylated, place not given here) | Does not bind | 
8 | R215A: biotinylated MCL-1 SAHBD alanine point mutant R215A (RKALETLRAVGDGV[S5]RNH[S5]TAF; staple 15-19; also: biotinylated, place not given here) | weakly or not | 
